How the values were obtained:
[1] = target: long Homer proteins (Homer1b/c, Homer2, and Homer3, collectively referred to as Homer) (mouse (endogenous in hippocampal neurons))
[2] = target: long Homer proteins (Homer1b/c, Homer2, and Homer3, collectively referred to as Homer) (mouse (endogenous in hippocampal neurons)); remark: listed apart in the source
[3] = target: long Homer proteins (Homer1b/c, Homer2, and Homer3, collectively referred to as Homer) (mouse (endogenous in hippocampal neurons)); remark: listed apart in the source

Metabotropic glutamate receptor subtype 5 (mGluR5) (from UniProt Q3UVX5 19-1203)
EPSCs (NMDA) amplitude (% of baseline) after DHPG (mGluR-LTD) in WT slices treated with TAT-mGluR5ct; LTD abolished [1]: 101%
EPSCs (NMDA) amplitude (% of baseline) after DHPG (mGluR-LTD) in WT slices treated with the control peptide TAT-mGluR5mu; LTD not abolished [1]: 56.6%
EPSCs (NMDA) amplitude in CA1 pyramidal neurons of WT slices treated with TAT-mGluR5ct (5 µM, 4 h); lower than untreated WT [1]: 88.1 pA
EPSCs (NMDA) amplitude in CA1 pyramidal neurons of WT slices treated with the control peptide TAT-mGluR5mu (5 µM, 4 h); not lower than untreated WT [1]: 126 pA
NMDA/AMPA ratio in CA1 pyramidal neurons of WT slices treated with TAT-mGluR5ct; reduced [1]: 0.88
change of the mobile fraction of synaptic mGluR5 in WT neurons, TAT-mGluR5ct against TAT-mGluR5mu [2]: 12.6%
co-localized mGluR5/GluN1/Homer1-positive signals as percentage of synaptic GluN1 signal, WT neurons treated with TAT-mGluR5ct (5 µM, 1 h); increased [3]: 71.8%
co-localized mGluR5/GluN1/Homer1-positive signals as percentage of synaptic GluN1 signal, WT neurons treated with the control peptide TAT-mGluR5mu (5 µM, 1 h); no effect [3]: 61.2%

Reference: publication PMC5653653
